Publication PMC4831024

Target: Ku70/Ku80ΔC heterodimer, P12956;P13010
Experiment: fluorescence polarisation
Conditions: read at the highest Ku concentration, about 14 µM KuΔC; 100 nM fluorescein-labeled peptide; room temperature; 20 mM HEPES pH 7.5, 200 mM NaCl, 0.5 mM TCEP; parent: est. 190; read off a plot

fluorescein-labelled WRN-nA peptide (N-terminal KBM of WRN) W18A
response: 19 millidegrees
